For two sequences, binding results are on record in PMC7252695.

Data set [1] has as its target T1, GST-TEK (Arabidopsis thaliana) (UniProt Q9SJG4).
T1 sequence: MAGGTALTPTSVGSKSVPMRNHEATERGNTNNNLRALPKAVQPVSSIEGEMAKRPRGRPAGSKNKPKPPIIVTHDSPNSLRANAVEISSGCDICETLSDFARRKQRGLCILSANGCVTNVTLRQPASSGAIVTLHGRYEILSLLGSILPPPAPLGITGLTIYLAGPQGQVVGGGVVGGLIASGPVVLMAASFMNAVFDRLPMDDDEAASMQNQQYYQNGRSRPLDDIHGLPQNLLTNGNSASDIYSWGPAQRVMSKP
Description: EMSA. The conditions noted are these: EMSA according to manufacturer's instructions (Thermo Scientific); buffer, salt, pH and temperature not stated. On the technique in general: A gel shift assay detects complexes by their altered migration in electrophoresis.

The target in data set [2] is T1, GST-TEK (Arabidopsis thaliana). Description: competition. Conditions: EMSA according to manufacturer's instructions (Thermo Scientific); buffer, salt, pH and temperature not stated.

In the case of “GCCCATATATAGTATCTTCCGCTGTTGTATATCTTGAGCAGCTTGAGGAAGCCTTTGCAAAAAAATAGAGTGAATTTTGAGTACAGTATGAATATCATTCAACAACATTTTCCATCCAAGCGACTTAGAAAATAAAATTTTGTCAGCTACCTTAAACTGTGTTTACGTCCTAAAAATTTGCACCAA (double strand) [CalS5 P11 fragment]”, the binding entry in data set [1] was “binds”.
As to “GCCCATATATAGTATCTTCCGCTGTTGTATATCTTGAGCAGCTTGAGGAAGCCTTTGCAAAAAAATAGAGTGAATTTTGAGTACAGTATGAATATCATTCAACAACATTTTCCATCCAAGCGACTTAGAAAATAAAATTTTGTCAGCTACCTTAAACTGTGTTTACGTCCTAAAAATTTGCACCAA (double strand) [CalS5 P11 unlabeled competitor]”, the binding result in data set [2] is listed as “binds”.
